Test results taken from patent US20240228639A1 (ALLOGENE THERAPEUTICS, published 2024).
“And” between values parts separate entries of the source, which are not always exact repeats. Equal values may be shown once.

Assays:
4F11 scFv 10xHis [1] = target: T1, 4F11 scFv 10xHis; experiment: SPR (Biacore), clone 60 captured on anti-mouse Fc, 4F11_scFv_0166-P as analyte, 37 C, 1:1 Binding model; Table 3 prints 1.43 nM for this lot, the sheet prints 1.422E-9
T1 construct: also called 4F11-derived scFv with a His tag; anti-CD70 scFv 4F11
Description: (§1) All SPR analysis was determined on a BIACore T200 SPR instrument (Cytiva, Marlborough, MA). For kinetic analysis and determination of simultaneous target antigen binding of CD70 anti-idiotype antibodies, mouse Fc was captured on a Biacore Series S CM4 sensor chip by amine-coupling of an anti-mouse Fc reagent (Mouse Antibody Capture Kit, Cytiva, BR100838) to the Biacore Series S CM4 sensor chip using a running buffer of 10 mM HEPES, 150 mM NaCl, 0.05% (v/v) Tween-20, pH 7.4 at 25° C. All surfaces of the sensor chip were activated with a 1:1 (v/v) mixture of 400 mM 1-Ethyl-3-(3-Dimethylaminopropyl) carbodiimide hydrochloride (EDC) and 100 mM N-hydroxysuccinimide (NHS) for 7 min at 10 μL/min. The anti-mouse Fc reagent was diluted to 30 μg/mL in 10 mM sodium acetate (pH 5.0) and injected on all four flow cells for 7 min at 10 μL/min, then all flow cells were blocked with 100 mM ethylenediamine in 200 mM Borate buffer pH 8.5 for 7 min at […].
(§2) All interaction experiments were performed at 37° C. using the same running buffer as described above supplemented with 1 mg/mL BSA. […] The dissociation was monitored for 10 min followed by regeneration of all flow cells with 10 mM glycine at pH 1.7 for 3 min. […]

Biotin-hCD70 = target: T2, Biotin-hCD70 (human, UniProt P32970 39-193, limits assumed, biotinylated (site not stated)); experiment: SPR, Bt-hCD70 alone injected over clone 60 (hybridoma and recombinant) captured on anti-mouse Fc, then streptavidin
T2 construct: also called biotin-hCD70 complex; target antigen hCD70
T2 sequence (looked up): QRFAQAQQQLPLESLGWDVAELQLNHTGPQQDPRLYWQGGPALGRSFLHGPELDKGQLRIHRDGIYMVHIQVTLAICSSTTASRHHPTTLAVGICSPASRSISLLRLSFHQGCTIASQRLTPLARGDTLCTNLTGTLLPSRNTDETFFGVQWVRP

4F11 scFv 10xHis [2] = target: T1, 4F11 scFv 10xHis; experiment: SPR (Biacore T200), 37 C; antibody captured on anti-mouse Fc chip, 4F11 scFv 10xHis 1.2-100 nM as analyte; 1:1 Langmuir fit
Description: as §1, §2

T1 sequence (scFv, as listed by the source): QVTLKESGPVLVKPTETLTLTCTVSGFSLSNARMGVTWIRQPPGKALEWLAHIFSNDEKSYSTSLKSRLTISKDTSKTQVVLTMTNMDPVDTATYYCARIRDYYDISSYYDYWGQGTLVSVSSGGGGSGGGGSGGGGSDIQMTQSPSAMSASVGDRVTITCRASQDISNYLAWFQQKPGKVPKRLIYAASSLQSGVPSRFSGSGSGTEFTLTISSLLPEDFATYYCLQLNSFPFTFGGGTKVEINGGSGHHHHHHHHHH

Kd (4F11 scFv 10xHis [1]): 1.42 nM
binding result (Biotin-hCD70): no binding (tested: 1 uM)
Kd (4F11 scFv 10xHis [2]): 1.43 nM and 1.52 nM and 1.42 nM and 1.32 nM
koff (4F11 scFv 10xHis [2]): 0.00343 s⁻¹ and 0.00359 s⁻¹ and 0.00312 s⁻¹ and 0.00348 s⁻¹
t1/2 (4F11 scFv 10xHis [2]): 3.32 min and 3.37 min and 3.7 min and 3.22 min
B1: anti-idiotype antibody Clone 60 (IDA2002-1.60) (antibody, mouse IgG1, kappa, V domains shown)
VH: EVQLQQSGPELVKTGTSVKISCKASGYSITGYYIHWVKQSHGRSLDWIGSISFYNGATTYNQKFKGKVTFTVDTSSSTAYMQFNSLTSEDSAVYYCGRRGDDYDVFAYWGQGTLVTVSA
VL: DIVLTQSPASLAVSLGQRATISCRASESVDSYGYSFLHWYQQKPGQPPTLLIYRASNLESGIPARFSGSGSRTDFTLTINSVEADDVATYYCQQSNEDPWTFGGGTKLEIKR
notes: Mouse IgG1 kappa; also called clone 1.60; Clone 60-PE
kon (4F11 scFv 10xHis [2]): 2.7e+06 M⁻¹ s⁻¹ and 2.2e+06 M⁻¹ s⁻¹ (2×) and 2.4e+06 M⁻¹ s⁻¹
